Results as given in doi:10.1101/2020.07.20.212654 (bioRxiv, 2020).

Columns and labels:
MET567 [1] = molecular target: T1, MET567 (human, UniProt P08581 25-567); test: SPR
MET567 [2] = molecular target: T1, MET567; test: SEC-SAXS

T1 sequence (P08581 25-567): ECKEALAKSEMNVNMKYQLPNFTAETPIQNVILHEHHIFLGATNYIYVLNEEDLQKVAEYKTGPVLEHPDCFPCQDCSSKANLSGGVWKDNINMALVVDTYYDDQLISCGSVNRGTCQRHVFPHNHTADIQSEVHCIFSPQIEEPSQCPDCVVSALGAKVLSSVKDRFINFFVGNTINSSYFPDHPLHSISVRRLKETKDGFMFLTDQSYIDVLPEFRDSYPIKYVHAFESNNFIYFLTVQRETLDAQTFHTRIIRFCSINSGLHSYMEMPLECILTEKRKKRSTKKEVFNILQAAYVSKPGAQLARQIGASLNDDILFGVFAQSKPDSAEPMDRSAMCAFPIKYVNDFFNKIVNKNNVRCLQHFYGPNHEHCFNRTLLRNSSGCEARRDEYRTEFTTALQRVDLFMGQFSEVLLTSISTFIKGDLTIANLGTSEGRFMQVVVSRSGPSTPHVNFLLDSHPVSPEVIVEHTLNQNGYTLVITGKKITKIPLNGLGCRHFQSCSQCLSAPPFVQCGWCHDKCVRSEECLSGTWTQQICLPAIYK

Row | Kd (MET567 [1]) | stoichiometry N (MET567 [2]) | Molecule
1 | 205 nM | 1 K1K1:MET567 | K1K1 (from UniProt P14210 128-206) (ligand)
2 | 200 nM | – | NK1 (domain or fragment, human, UniProt P14210 28-209, looked up) YAEGQRKRRNTIHEFKKSAKTTLIKIDPALKIKTKKVNTADQCANRCTRNKGLPFTCKAFVFDKARKQCLWFPFNSMSSGVKKEFGHEFDLYENKDYIRNCIIGKGRSYKGTVSITKSGIKCQPWSSMIPHEHSFLPSSYRGKDLQENYCRNPRGEEGGPWCFTSNPEVRYEVCDIPQCSEV
